Here are results for one substance from patent publication US20020110800.

The target in this data set is wild-type TrkA, baculovirus-expressed, activated (autophosphorylated) (UniProt P04629).

Turning to SHP-1, the “dephosphorylation of 32P-autophosphorylated Trk in vitro” value is listed as “approximately 5-fold dephosphorylation”.
